What was measured:
[1] = molecular target: T1, VboTA (Variovorax boronicumulans ω-transaminase) (Variovorax boronicumulans, UniProt Z9A1T7NCF1); assay: activity at varied substrate concentration; format: biochemical; conditions: substrate inhibition; pH 9, 30 °C
T1 construct: full length, 433 aa, C-terminal His-tag (pET21b, NdeI/XhoI), codon-optimised, E. coli BL21(DE3), Ni-NTA

[2] = tested on: NC(CC(=O)O)Cc1ccccc1; assay: purified protein; conditions: 5.2 mM 2-oxoglutarate, 0.1 mM PLP, 100 mM potassium borate pH 9, 30 °C, donor 2-10 mM
Excerpt: (§1) glutamate quantification, Lineweaver-Burk on VboTA (Variovorax boronicumulans ω-transaminase)

[3] = tested on: CC(N)CC(=O)O; assay: purified protein; conditions: 5.2 mM 2-oxoglutarate, 0.1 mM PLP, 100 mM potassium borate pH 9, 30 °C, donor 2-10 mM
Excerpt: as §1

[4] = tested on: O=C(O)CCC(=O)C(=O)O; assay: purified protein; conditions: 10 mM β-phenylalanine, 0.1 mM PLP, 100 mM potassium borate pH 9, 30 °C, 2-8 mM 2-oxoglutarate
Excerpt: as §1

[5] = tested on: CC(C)C(N)CC(=O)O; assay: purified protein; conditions: 5.2 mM 2-oxoglutarate, 0.1 mM PLP, 100 mM potassium borate pH 9, 30 °C, donor 2-10 mM
Excerpt: as §1

[6] = tested on: NC(CC(=O)O)c1ccccc1; assay: purified protein; conditions: 5.2 mM 2-oxoglutarate, 0.1 mM PLP, 100 mM potassium borate pH 9, 30 °C, donor 2-10 mM, Km above tested range
Excerpt: as §1

T1 sequence (Z9A1T7NCF1 1-433): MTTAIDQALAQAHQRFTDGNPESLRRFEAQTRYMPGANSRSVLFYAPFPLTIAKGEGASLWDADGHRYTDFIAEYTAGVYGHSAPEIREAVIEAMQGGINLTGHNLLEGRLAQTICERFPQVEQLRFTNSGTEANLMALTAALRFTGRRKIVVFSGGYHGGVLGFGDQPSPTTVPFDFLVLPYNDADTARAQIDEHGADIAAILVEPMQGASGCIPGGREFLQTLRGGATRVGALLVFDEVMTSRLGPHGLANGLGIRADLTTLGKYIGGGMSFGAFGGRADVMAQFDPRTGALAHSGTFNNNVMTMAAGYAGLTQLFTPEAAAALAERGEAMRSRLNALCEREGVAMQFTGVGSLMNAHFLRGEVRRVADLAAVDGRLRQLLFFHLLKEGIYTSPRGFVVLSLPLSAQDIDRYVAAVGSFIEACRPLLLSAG

In the case of `O=C(O)CCC(=O)C(=O)O` [2-Oxoglutaric acid], the “loss of activity at 20 mM” value [1] is reported as ~ 70%.
With “VboTA (Variovorax boronicumulans ω-transaminase) (Variovorax boronicumulans)” the Km [2] was 0.7 ± 0.2 mmol/L, the Vmax [2] was 1.1 µmol/min and the kcat [2] was 1.6 ± 0.07 s⁻¹. The kcat/Km [2] was 2200 ± 100 M⁻¹ s⁻¹, the Km [3] was 4.4 ± 0.3 mmol/L and the Vmax [3] was 1.4 µmol/min. It also gave a kcat [3] of 2 ± 0.2 s⁻¹, a kcat/Km [3] of 450 ± 50 M⁻¹ s⁻¹ and a Km [4] of 2.1 ± 0.4 mmol/L. For the same molecule, the Vmax [4] was 24.9 µmol/min, the kcat [4] was 34.2 ± 2.7 s⁻¹ and the kcat/Km [4] was 16200 ± 1300 M⁻¹ s⁻¹. For the same molecule, the Km [5] was 44.7 ± 1.2 mmol/L, the Vmax [5] was 48.5 µmol/min and the kcat [5] was 66.5 ± 7.1 s⁻¹. For the same molecule, the kcat/Km [5] was 1500 ± 200 M⁻¹ s⁻¹, the Km [6] was 24.7 ± 3.8 mmol/L and the Vmax [6] was 20.5 µmol/min. For the same molecule, the kcat [6] was 28.1 ± 3.3 s⁻¹ and the kcat/Km [6] was 1100 ± 100 M⁻¹ s⁻¹.
